According to US7063946B2, “Methods, reagents, kits and apparatus for protein function analysis” (Meso Scale Technologies, LLC., priority 2001, dated 2006):

Key:
[1] = target: T1, IkBa peptide [SEQ ID No. 1] (Homo sapiens, UniProt P25963); test: Phosphopeptide binding assay, peptide-BSA coated IPR plate
T1 construct: two phosphoserines in the DSGLDS motif (chemical modification); purchased New England Peptide, Fitchburg Mass; host or cells: chemical synthesis
Source text: (§1) A phosphopeptide derived from the IkBa degradation motif (SEQ ID NO: 1) and a phosphopeptide derived from c-Myc (SEQ ID NO: 4) were chemically synthesized (New England Peptide, Fitchburg Mass.) with the following sequences respectively:
A maleimide pre-activated BSA (Pierce, Pittsburgh Pa.), which contains estimated 17 active maleimide groups on the protein surface, was used as the protein carrier, and was supplied as a lyophilized preparation. Coupling of the IkBa peptide (SEQ ID NO: 1) to the pre-activated BSA was carried out with 2 mg BSA (30 nmol) and 17 equivalents of the 25 residue phosphopeptide in 400 μl PBS. The reaction was terminated with 2 mM […] after incubation at room temperature for 30 minutes. The peptide:BSA conjugate was then purified on PD-10 gel filtration column to remove uncoupled peptide and analyzed with SDS PAGE to monitor the coupling reaction. […] After coupling and purification, the column fractions containing the peptide:BSA conjugates were pooled and the protein concentration of the pooled samples was determined by BCA assay (Pierce, Pittsburgh Pa.). NaN3, (0.02%) was added to the final peptide:BSA conjugate sample for long term storage at 4° C. […]
Two βTRCP genes, βTRCP1 and βTRCP2, are present in the human genome on chromosome 5 and 10, respectively. […] The ECL signals were measured using an imaging plate reader (IPR).

[2] = target: T2, c-Myc peptide [SEQ ID No. 4] (Homo sapiens, UniProt P01106); test: as above
T2 construct: phosphothreonine (T58) and phosphoserine (S62) (chemical modification); purchased New England Peptide, Fitchburg Mass; host or cells: chemical synthesis
Protocol: as §1
To prepare IPR plates for use in the assay, approximately 2.4 pmol BSA, 1.2 pmole IκBα-24pp peptide-BSA conjugate or 1.2 pmole of Myc-p58Tp62S peptide-BSA conjugate in 2.5 μl were deposited on the carbon working electrode surface in a single well of a 96-well plate. At this stage, the plates were dried then used or stored under desiccated condition. A few hours prior to usage, the plates were rehydrated and blocked with 3% BSA, in PBS.
Two βTRCP genes, βTRCP1 and βTRCP2, are present in the human genome on […], respectively. The coding sequence of these two genes shares over 90% identity and several full-length cDNAs of which are available as EST clones from Incyte (Palo Alto, Calif.) IMAGE #3491843 and 4237375. Also included were three other non specific EST clones as controls (Incyte, Palo alto, Calif.). […] These DNAs were used to produce the βTRCP protein and proteins encoded by the other DNAs as described in the Example 7. Proteins were transferred into wells of the peptide-coated and BSA-blocked IPR plates. […] The ECL signals were measured using an imaging plate reader (IPR).

[3] = target: T3, Myc peptide (SEQ ID NO: 4) (Homo sapiens, UniProt P01106); test: 96-well screen for phosphopeptide binding proteins, 7-spot IPR plates; conditions: two steps of normalization; top 9 clones
T3 construct: phosphothreonine (T58) and phosphoserine (S62) (chemical modification); purchased New England Peptide, Fitchburg Mass; host or cells: chemical synthesis
Protocol: A screen was conducted using 7-spot IPR plates. The 7 spot NPT IPR plates are described in more detail in copending Provisional Application No. 60/301,932 (entitled “Assay Plates, Reader Systems and Methods for Luminescence Test Measurements”, filed on Jun. 29, 2001, hereby incorporated by reference) and particularly in the description of Plate Type D in Example 6.1 (NPT IPR plate) and U.S. application Ser. Nos. 10/185,274 and 10/185,363, filed Jun. 28, 2002, each hereby incorporated by reference. These plates consist of a 96 wells with 7 zones (spots) for the immobilization of proteins or other reagents. Each spot was coated with BSA conjugated to either a single phosphopeptide or multiple phosphopeptides.
The plates were prepared essentially as described in example 12. The seven spots supported, respectively, the following BSA conjugates IkB, pY992, pY1068, pY1148, Myc, “A”, and “6-P”. […]
For the assay, 4 ul from TnT reaction product described above were added to the coated plate containing 50 μl of binding buffer supplemented with 50 ng/well Ru-Streptavidin. […] The ECL signals were measured using an imaging plate reader (IPR). The raw data from the IPR reader was then normalized using two steps of normalization. […] These 50 lowest values were averaged and divided into each signal for that spot to generate a signal value which could be compared readily between the peptide-conjugate spots. […]

T3 sequence (P01106 with tags, fused parts or gaps limits assumed): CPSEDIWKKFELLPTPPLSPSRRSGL
T1 sequence (P25963 with tags, fused parts or gaps limits assumed): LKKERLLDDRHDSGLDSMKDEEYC

Average ECL signal, IkBa peptide [SEQ ID No. 1] [1]: 21501
Average ECL signal, c-Myc peptide [SEQ ID No. 4] [2]: 896
normalized ECL signal, Myc spot [3]: 10
B1: 4237375: IMAGE clone protein: βTRCP2 (protein)
chain: MEPDSVIEDKTIELMCSVPRSLWLGCANLVESMCALSCLQSMPSVRCLQISNGTSSVIVSRKRPSEGNYQKEKDLCIKYFDQWSESDQVEFVEHLISRMCHYQHGHINSYLKPMLQRDFITALPEQGLDHIAENILSYLDARSLCAAELVCKEWQRVISEGMLWKKLIERMVRTDPLWKGLSERRGWDQYLFKNRPTDGPPNSFYRSLYPKIIQDIETIESNWRCGRHNLQRIQCRSENSKGVYCLQYDDEKIISGLRDNSIKIWDKTSLECLKVLTGHTGSVLCLQYDERVIVTGSSDSTVRVWDVNTGEVLNTLIHHNEAVLHLRFSNGLMVTCSKDRSIAVWDMASATDITLRRVLVGHRAAVNVVDFDDKYIVSASGDRTIKVWSTSTCEFVRTLNGHKRGIACLQYRDRLVVSGSSDNTIRLWDIECGACLRVLEGHEELVRCIRFDNKRIVSGAYDGKIKVWDLQAALDPRAPASTLCLRTLVEHSGRVFRLQFDEFQIISSSHDDTILIWDFLNVPPSAQNETRSPSRTYTYISR
